# Assay: soluble on expression in E. coli; label from the status in PepcDB or PDB records
row,Sequence,soluble on expression in E. coli
1,MGSDKIHHHHHHMEIDPRAQLIEWESSSLGVKGRMYVYTPPEYHPHGPALPVVYLLRGHEREWVNRREDDSRMGSAIDVYERVRARGEIGPLILAMPGLASTDNRIPGLLADFAAPHLTDAEGIGSGRFATFFFEEVLPLLEREFHAHPQARAITGFSLGGYMAVKAVALHPELFVSVSAYDGSFPYASDNGRRSRRYDTLFTASMFDPALGRPRDPDRLRDHNPICLLMRANRAALRRITWMIQYGPEHIEPWGANFYRGEYLLRALATLGIANATPIAALPDGAHTWAVADRHLEQALPLHYRAFERVMKSDP,not soluble
2,MAAKVVLDFEKPLYELEEKLNEMRVYLKSGEVDSMSEGRAGLKREIESLEAKVESLRKTIYKNLTRWQKVQLARHPERPYTLDYIYMMMKDFVELSGDRNFGDDKAIIGGFARLEDESAGFSQSVMVIGHQKGRDTKSNLYRNFGMAQPEGYRKALRLMKLAEKFRKPVITLIDTPGAFPGIEAEERGQAEAIARNLYEMAALKVPVICVIIGEGASGGAIGIGVGDRILMAENAWYSVISPESCSSILWRSWNFKEQAAEALKLTADDLLAQGIIDRIVTEPLGGAHHNPEQMASTLKSILIEELQGLLTKDARTLVDERIAKFSGMGVWEES,not soluble
3,GSIPGLERALQQYTLEPSEKPFDLKSVPLATAPLAEQRTESTPVTAAKQPEKVAATRQEIFQEQLAAVPEFQGLGPLFKSSPEPVALTESETEYVIRCTKHTFTDHMVFQFDCTNTLNDQTLENVTVQMEPSEAYEVLCYVPARSLPYNQPGTCYTLVALPKEDPTAVACTFSCVMKFTVKDCDPTTGEADDEGYEDEYVLEDLEVTIADHIQKVMKLNFEAAWDEVGDEFQKEETFTLSTIKTLEEAVGNIVKFLGMHPCERSDKVPDNKNTHTLLLAGVFRGGHDILVRSRLLLLDTVTMQVTARSSEELPVDIVLASVG,soluble
4,MGLRNENGIVVYPLINGAYRVAASDNYTSNFGLEWNTFQKTQIDKFSGNTVSEERLFAQTNWQKNGLEGETILEVGSGAGRFSQIMLDHTKATLYSVDYSEAVEANYRNNGPHERFKLFQASIYELPFKQASFDRVICLGVLQHTPDFKASVKALVEMVKPGGELVIDFYPIRNVFTKVHGKYLLRPILKRVNHHRLMSLIRNNIDFLISIYTFNRRIGLGVFNRFVPICEIERTLPKGMTPEQLKEWIILDTFDMFSPEYDQPQRLSTVAKWVKEFGMADVDASWVTYHGLEHHHHHH,not soluble
5,MGSDKIHHHHHHVKKQVPDKTELGRTRVLVVGDVMLDRYWFGAVERISPEAPVPVVRVTREEERLGGAANVALNVKSLGARATLLTVVGDDEPAHTLKRLLERDGIDTLLGSDPQLYTIVKLRVIGRSQQLIRIDFENQPDHEVLAEMLQDYETTLAEQDAVLFSDYGKGGLEHIPRMIELARRSGKPVLVDPKGSDYRRYAGASVITPNRAELAQVVGAWSSEAQLRERAQALRVELGLEALLLTRSEEGMTLFDARGDTSVPAQAREVFDVTGAGDTVIATMAAMIACGLSPREAMPLANRAGSIVVGKFGTASVSYDELFE,not soluble
6,MTLNYHAHGKEIEASYRRASDDSDGDKWVIFDYEGNSNTLRVKEEGTGGLEEFADSFSSGKLQFGVISVRLSSDVFPKIVLVHWQGEGVPTLRLASTTPHAEEFRRFLKTVHIVLHARSEIDIEPDAIRKEVRKLPAANANAIVESTYSMPEKVNSVYQPTNAHSELSSEARENFWSTTNQEEKRRQADEKVAHAKQQKQYEADRDRTAAAIHTKAEDFQPEKVNSVYKPTKPHVELKTVKREEFWSKMNEEEKLRQEEEKTAREQAHKQFEADRQRMASEIHSKTENYQPDKVTSVYKPTKPHVEISSSAREEFWSKMNEEEQRRQAEEKEAQAQKQKEFETDRKRIADDLHGKAQISDKPVPSSVNPAPAPAPTPSAGLVGSRKELFSSKPSGPVLPKPQVNGSPKKWPPVGTTSPPREPVNRLTEPDEPSTYTPKPIAYEPEPMVYKPEAMKPAVSYDAYEEPPAEPAPPTFLAPTPVIAPPPPEPTPAPSHYASQYDAPPVHESFEPAVPPVSAPSHYASQYDAPPEPIDSHSSSSQLPAHIASQYDMPPVMPEEPVFAPKSSPIKVAAPPIDQYDFPPAVAEQNAMALWDYQAADDTEISFDPDDIITDIDQVDSGWWKGRAPSGRVGLFPANYVKLI,not soluble
7,HMTELLKNHVAGQWIAGTGAGITLTDPVTGVALVRVSSEGLDLARAFSFAREDGGAALRALTYAQRAARLADIVKLLQAKRGDYYAIATANSGTTRNDSAVDIDGGIFTLSYYAKLGASLGEVHALRDGSAESLSKDRSFSAQHVLSPTRGVALFINAFNFPSWGLWEKAAPALLSGVPVIVKPATATAWLTQRMVADVVDAGILPPGALSIICGSSAGLLDQIRSFDVVSFTGSADTAATLRAHPAFVQRGARLNVEADSLNSAILCADATPDTPAFDLFIKEVVREMTVKSGQKCTAIRRAFVPEAALEPVLEALKAKLAKITVGNPRNDAVRMGSLVSREQYENVLAGIAALREEAVLAYDSSAVPLIDADANIAACVAPHLFVVNDPDNATLLHDVEVFGPVASVAPYRVTTDTNALPEAHAVALARRGQGSLVASIYSNDDAHLGRLALELADSHGRVHAISPSVQHSQTGHGNVMPMSLHGGPGRAGGGEELGGLRALAFYHRRSAIQAASAAIGTLTQATHWPAA,soluble
8,MSSNYIYRTAEKSDFDRILKFLAEHFYHEEPSIRASKIALEEWLPIFGEMTTSSLKLPISTVVTTEDGENIVAVLLNSMWSREEDEERMKHGNGKGDHDTSGYSEALQRFMTIVQKCHDEFWNLAPSDVNLVVYREISSVGKPWQRQGIATKMLSRNMSAARLHNVDGIVSATSSFANQTLLAKNGFQCLKEFPYSGIVSSNGDKLVETDDGSHGMRINFKRIEKSGNGPCEMEPPKSATFQNVATSVSS,soluble
9,GDKVIVMGHKRPDLDAIGAAIGVSRFASMNNLEAFIVLNDSDIDPTLRRVMDEIDKKPELKERFVTSDEAWDMMTSKTTVVVVDTHKPEMVLDENVLNKANRKVVIDHHRRGESFISNPLLVYMEPYASSTAELVTELLEYQPTEQRLTRLESTVMYAGIIVDTRNFTLRTGSRTFDAASYLRAHGADTILTQHFLKDDV,not soluble
10,MLAFFRRFMSTTTVTAQPVLPWFRNVPLAPADPILGVTEAFKKDTNPNKINLGVGAYRDDQGKPFVLRAVREAEQQIIDAKMDKEYSTITGVPEFAPLAAKLAFGDNSEVIRDGRVFTTQSISGTGALRIGGQFVEKFIPSKTLFYPTPTWANHLPVFRNSGLSIQPYRYYNQETLGFDVEGALEDISKMPEGSVILLHACAHNPTGVDPTKEQWKKLSQVLKERKILPFFDMAYQGFASGDVDDDAFALRHFIEQGHNVLVAQSFAKNMGLYGERVGAFSIVCDSAEEAIRVGSQMRIIIRPMISMPPLHGARIASRILSNPELKKSWLEDVKLMADRIKSMRTALKDGLKAEGSTLNWDHITNQIGMFCFTGINEKQVQKLIKEHSVYLTNDGRISISGINTGNVAYLAKALHDVTK,not soluble
11,MEKSVSVILLAGGQGKRMKMSMPKQYIPLLGQPIALYSFFTFSRMPEVKEIVVVCDPFFRDIFEEYEESIDVDLRFAIPGKERQDSVYSGLQEIDVNSELVCIHDSARPLVNTEDVEKVLKDGSAVGAAVLGVPAKATIKEVNSDSLVVKTLDRKTLWEMQTPQVIKPELLKKGFELVKSEGLEVTDDVSIVEYLKHPVYVSQGSYTNIKVTTPDDLLLAERILSEDS,soluble
12,DVRGMSQSVGAVVRGFATADPHVRIAGVILNKVGTDRHAEVCREAVEAVGVRVLGAIPRVDHAEVPSRHLGLITSVELDAAEDAVAAMATMVEEHVDLNALIELADCAYNGPAWDPALAMGMSDAEALDN,not soluble
13,MSLKQRPNVLLIVLDTARARTVLPGLESGLMPTLSRIASDGTTFTDATATAPWTLPSHAGMFTGKYTSSHGVHAGNHIFDPDSEPLASRISNAGYRTAGISGNVWISPEFGFDAGFDEFSMKWDLFWDAPELSSVISNRNTTATGDTILDVFRGQGPVDLLKGTLTTGYAKFLAERHDDGAHHTTSRTVEWLEQNGTEDDPFFYFLNYVEPHLPYEPPAPFLDEYLPDGADPSRVSDLNQDPWQYVAGDQELTDADVEIFKGLYEAELAYLDTQLERLYDTLAEQCILDETAIILVGDHGENIGEHGLMDHQYCLYETLIHVPLVIRYPELFDEEEVSGPVELRDLYPTVTDLAGAEQPADTDVSTHSLVPRDGTVPVRDRAIAEYLVPQPSMDSLREAVESFDEAATRFDRPLRAIKTTDWKFIEAPDDTELYDRDDDPIEWIDVASIHPDICELLGTDLRDELGRLARGTSDSNTISANKKERLEDLGYLQ,not soluble

# From the DeepSol protein solubility set
